The assay addresses hDOP–Renilla luciferase (human, UniProt P41143 1-372). As to the kind of experiment: FRET or BRET.

The values that follow come from PMC2474558 (Biochemical Journal, 2008).

hDOP–Renilla luciferase, sequence (P41143 whole entry): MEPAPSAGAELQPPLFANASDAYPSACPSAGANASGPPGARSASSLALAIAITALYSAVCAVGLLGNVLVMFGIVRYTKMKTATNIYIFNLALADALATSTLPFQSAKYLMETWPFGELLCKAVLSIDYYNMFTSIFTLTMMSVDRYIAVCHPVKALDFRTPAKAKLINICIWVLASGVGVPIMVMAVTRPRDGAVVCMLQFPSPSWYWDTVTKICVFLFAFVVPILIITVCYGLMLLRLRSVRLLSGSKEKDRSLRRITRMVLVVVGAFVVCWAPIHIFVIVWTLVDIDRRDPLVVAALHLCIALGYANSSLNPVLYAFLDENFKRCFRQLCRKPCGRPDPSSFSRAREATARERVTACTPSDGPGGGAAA

B1: hCXCR2–GFP^2 (receptor)
chain: MEDFNMESDSFEDFWKGEDLSNYSYSSTLPPFLLDAAPCEPESLEINKYFVVIIYALVFLLSLLGNSLVMLVILYSRVGRSVTDVYLLNLALADLLFALTLPIWAASKVNGWIFGTFLCKVVSLLKEVNFYSGILLLACISVDRYLAIVHATRTLTQKRYLVKFICLSIWGLSLLLALPVLLFRRTVYSSNVSPACYEDMGNNTANWRMLLRILPQSFGFIVPLLIMLFCYGFTLRTLFKAHMGQKHRAMRVIFAVVLIFLLCWLPYNLVLLADTLMRTQVIQETCERRNHIDRALDATEILGILHSCLNPLIYAFIGQKFRHGLLKILAIHGLISKDSLPKDSRPSFVGSSSGHTSTTL
For B1, the BRET50 is 0.34 ± 0.02 [acceptor] to [donor] ratio.
